Consider six molecules from patent US20200102387A1 (CELGENE, published 2020).

Changes are numbered by the printed parent chain. Names may count otherwise.

Assay [1] addresses T1, extracellular domain of SIRPα v1-DLN (e.g. SIRPα1) (human, UniProt P78324 31-373).
T1 construct: also called hSIRPα - ECD (v1)
In words: SPR Biacore T200, antibody on Protein A chip, 1:1 Langmuir fit. (SPR reads the build-up and loss of mass on a sensor chip optically.)

The target in assay [2] is T2, SIRPβ extracellular domain (human, UniProt O00241 30-371).
T2 construct: also called hSIRPβ - ECD
T2 chain: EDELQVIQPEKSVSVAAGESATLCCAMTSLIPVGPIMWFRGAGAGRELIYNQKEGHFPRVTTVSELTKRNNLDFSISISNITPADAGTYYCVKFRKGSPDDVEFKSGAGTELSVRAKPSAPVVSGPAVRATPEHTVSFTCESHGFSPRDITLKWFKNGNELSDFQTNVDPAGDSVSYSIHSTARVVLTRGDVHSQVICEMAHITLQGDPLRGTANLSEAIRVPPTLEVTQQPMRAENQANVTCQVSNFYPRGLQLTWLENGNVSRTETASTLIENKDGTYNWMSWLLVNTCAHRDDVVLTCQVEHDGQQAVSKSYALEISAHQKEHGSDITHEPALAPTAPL
The description is as above.

In assay [3] the target is T3, SIRPγ extracellular domain (human, UniProt Q9P1W8 29-360).
T3 construct: also called hSIRPγ - ECD
T3 sequence (Q9P1W8 29-360 limits assumed): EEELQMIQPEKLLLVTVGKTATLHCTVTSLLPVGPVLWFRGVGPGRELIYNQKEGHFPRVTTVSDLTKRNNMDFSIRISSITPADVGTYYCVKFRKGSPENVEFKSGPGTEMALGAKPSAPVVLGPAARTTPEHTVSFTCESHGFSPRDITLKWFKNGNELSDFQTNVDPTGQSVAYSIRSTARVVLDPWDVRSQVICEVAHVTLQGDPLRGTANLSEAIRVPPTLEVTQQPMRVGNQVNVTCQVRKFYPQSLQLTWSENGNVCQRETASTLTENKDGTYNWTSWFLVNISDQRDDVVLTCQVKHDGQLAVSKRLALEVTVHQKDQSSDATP
The description is as above.

The target in assay [4] is T4, human SIRPα v1-Fc (SIRPα1 extracellular domain fused to human IGHG1_Fc) (human, UniProt P78324 31-373; P0DOX5 223-449 = IgG part).
T4 construct: also called V1 (e.g. SIRPα1); SIRPα V1: DLN
The assay can be described thus: BLI Octet, antigen-Fc on biosensor. (BLI is a label-free optical method that tracks binding on a fibre tip over time.)

The target in assay [5] is T5, human SIRPα v2-Fc (SIRPα2 extracellular domain fused to human IGHG1_Fc) (human, UniProt P78324 31-373; P0DOX5 223-449 = IgG part).
T5 construct: as m38; also called V2 (e.g. SIRPα2); SIRPα V2:ESE
The assay can be described thus: BLI Octet, antigen-Fc on biosensor.

Assay [6] deals with T6, human SIRPα v3-Fc (SIRPα3 extracellular domain fused to human IGHG1_Fc) (human, UniProt P78324 31-373; P0DOX5 223-449 = IgG part).
T6 construct: as m38; also called V3 (e.g. SIRPα3)
The assay can be described thus: BLI Octet, antigen-Fc on biosensor.

The target in assay [7] is T7, human SIRPα v4-Fc (SIRPα4 extracellular domain fused to human IGHG1_Fc) (human, UniProt P78324 31-373; P0DOX5 223-449 = IgG part).
T7 construct: as m38; also called V4 (e.g. SIRPα4)
The assay can be described thus: BLI Octet, antigen-Fc on biosensor.

In assay [8] the target is T8, human SIRPα v5-Fc (SIRPα5 extracellular domain fused to human IGHG1_Fc) (human, UniProt P78324 31-373; P0DOX5 223-449 = IgG part).
T8 construct: as m38; also called V5 (e.g. SIRPα5)
The assay can be described thus: BLI Octet, antigen-Fc on biosensor.

Assay [9] has as its target T9, human SIRPα v6-Fc (SIRPα6 extracellular domain fused to human IGHG1_Fc) (human, UniProt P78324 31-373; P0DOX5 223-449 = IgG part).
T9 construct: as m38; also called V6 (e.g. SIRPα6)
The assay can be described thus: BLI Octet, antigen-Fc on biosensor.

Another assay has as its target T10, human SIRPβ-Fc (human).
T10 construct: a signal peptide may be part of the entry
The assay can be described thus: BLI Octet, antigen-Fc on biosensor.

In another assay the target is T11, human SIRPγ-Fc (human).
T11 construct: a signal peptide may be part of the entry
The assay can be described thus: BLI Octet, antigen-Fc on biosensor.

Assay [10] has as its target T12, mouse SIRPα-Fc (mouse).
T12 construct: a signal peptide may be part of the entry; also called Ms; Ms SIRPα-Fc
The assay can be described thus: BLI Octet, antigen-Fc on biosensor.

The next assay deals with T13, human SIRPα on cells (human, UniProt P78324 31-504).
T13 construct: whole, on cells; also called human SIRPα-CHO; Hu SIRPα-CHO-K1
The assay can be described thus: cell binding, Hu SIRPα-CHO-K1 cells, 100 nM antibody.

For assay [11], the target named is T14, cynomolgus SIRPα on cells (cynomolgus, UniProt P78324 31-373 (human entry)).
T14 construct: also called cyno SIRPα-CHO; Cyno SIRPα-CHO-K1; not shown: Transmembrane and cytoplasmic region of cynomolgus SIRPα
T14 chain: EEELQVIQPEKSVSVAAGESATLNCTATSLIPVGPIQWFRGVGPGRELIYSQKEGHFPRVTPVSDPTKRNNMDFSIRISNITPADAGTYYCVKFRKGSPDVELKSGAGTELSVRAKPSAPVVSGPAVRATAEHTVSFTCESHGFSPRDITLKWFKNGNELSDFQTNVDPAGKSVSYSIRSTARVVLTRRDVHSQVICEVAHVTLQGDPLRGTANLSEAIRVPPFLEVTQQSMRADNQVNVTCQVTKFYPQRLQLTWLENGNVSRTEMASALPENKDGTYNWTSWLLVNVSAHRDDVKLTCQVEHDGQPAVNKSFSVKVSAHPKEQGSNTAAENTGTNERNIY
The assay can be described thus: cell binding, Cyno SIRPα-CHO-K1 cells, 100 nM antibody.

Assay [12] deals with T15, mouse SIRPα on cells (mouse, UniProt P97797 32-513).
T15 construct: whole, on cells; also called mouse SIRPα-CHO-K1; Ms SIRPα-CHO-K1
T15 sequence (looked up): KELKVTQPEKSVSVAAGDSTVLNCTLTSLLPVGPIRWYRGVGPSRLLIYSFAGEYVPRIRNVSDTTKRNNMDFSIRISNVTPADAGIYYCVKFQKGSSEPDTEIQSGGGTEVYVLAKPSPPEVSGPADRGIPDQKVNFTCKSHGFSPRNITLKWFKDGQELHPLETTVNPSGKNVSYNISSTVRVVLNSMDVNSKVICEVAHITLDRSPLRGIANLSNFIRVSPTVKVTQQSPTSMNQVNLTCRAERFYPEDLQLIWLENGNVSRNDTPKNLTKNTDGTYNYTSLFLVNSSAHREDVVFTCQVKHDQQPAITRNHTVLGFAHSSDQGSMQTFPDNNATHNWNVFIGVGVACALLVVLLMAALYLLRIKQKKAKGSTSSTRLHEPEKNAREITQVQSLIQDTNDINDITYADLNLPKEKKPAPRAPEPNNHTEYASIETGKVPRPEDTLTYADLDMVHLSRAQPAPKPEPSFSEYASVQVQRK
The assay can be described thus: flow cytometry of mouse CD11b positive cells, FL2-H anti-human PE; concentration not given. A general note: A flow cytometer gives signals particle by particle.

The target of a further assay is T16, cyno SIRPα-Fc (cynomolgus).
T16 construct: a signal peptide may be part of the entry
The assay can be described thus: BLI Octet, antigen-Fc on biosensor.

Assay [13] has as its target T12, mouse SIRPα-Fc. The assay can be described thus: BLI Octet, antigen-Fc on biosensor. The source holds these as a separate data set.
The target in another assay is T17, NOD/SCID mouse SIRPα-Fc (mouse (NOD/SCID)).
T17 construct: a signal peptide may be part of the entry; also called NOD/SCID Ms SIRPα-Fc
T17 sequence (chain, as listed by the source limits assumed): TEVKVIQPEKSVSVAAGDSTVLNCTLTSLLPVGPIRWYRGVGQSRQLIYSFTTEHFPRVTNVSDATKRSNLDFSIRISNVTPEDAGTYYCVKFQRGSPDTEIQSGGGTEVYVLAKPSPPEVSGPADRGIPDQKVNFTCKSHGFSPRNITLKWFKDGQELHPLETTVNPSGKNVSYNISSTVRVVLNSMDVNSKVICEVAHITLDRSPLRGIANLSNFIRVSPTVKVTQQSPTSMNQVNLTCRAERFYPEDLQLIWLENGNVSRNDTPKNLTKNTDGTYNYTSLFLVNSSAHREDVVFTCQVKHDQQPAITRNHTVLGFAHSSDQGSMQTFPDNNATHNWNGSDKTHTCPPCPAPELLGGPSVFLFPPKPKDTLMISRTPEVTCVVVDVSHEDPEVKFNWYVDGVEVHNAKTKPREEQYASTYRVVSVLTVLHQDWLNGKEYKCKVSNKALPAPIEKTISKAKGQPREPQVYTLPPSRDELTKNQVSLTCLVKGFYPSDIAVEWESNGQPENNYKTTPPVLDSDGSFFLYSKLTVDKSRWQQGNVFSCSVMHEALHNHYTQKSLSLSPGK
In words: BLI Octet, antigen-Fc on biosensor.

Assay [14] addresses T15, mouse SIRPα on cells. The assay can be described thus: cell binding, Ms SIRPα-CHO-K1 cells, 100 nM antibody.

B1: SIRPAB-12-K322A (antibody, human IgG1, kappa)
light: DIQMTQSPSSVSASVGDRVTITCRASQGISSWLAWYQQKPGKAPKLLIYAASNLQSGVPSRFSGSGSGTDFTLTISSLQPEDFATYYCQQGASFPITFGGGTKVEIKRTVAAPSVFIFPPSDEQLKSGTASVVCLLNNFYPREAKVQWKVDNALQSGNSQESVTEQDSKDSTYSLSSTLTLSKADYEKHKVYACEVTHQGLSSPVTKSFNRGEC
heavy: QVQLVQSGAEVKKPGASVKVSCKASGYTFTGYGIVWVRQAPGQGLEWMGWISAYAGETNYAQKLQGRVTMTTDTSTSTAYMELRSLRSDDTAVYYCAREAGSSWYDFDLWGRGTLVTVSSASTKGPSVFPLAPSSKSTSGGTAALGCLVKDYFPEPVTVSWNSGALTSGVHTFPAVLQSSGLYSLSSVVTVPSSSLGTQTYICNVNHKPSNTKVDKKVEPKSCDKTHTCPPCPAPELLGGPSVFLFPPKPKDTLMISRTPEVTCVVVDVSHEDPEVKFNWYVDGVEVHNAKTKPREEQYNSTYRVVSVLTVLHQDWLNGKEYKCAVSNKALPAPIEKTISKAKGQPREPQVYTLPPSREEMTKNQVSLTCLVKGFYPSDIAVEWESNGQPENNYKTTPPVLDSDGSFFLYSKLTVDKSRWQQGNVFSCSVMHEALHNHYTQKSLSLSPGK
notes: human IgG1 with K322A
Regarding B1, the figures for the Kd in [1], in [2] and in [3] were 0.424 nM, 2.08 nM and 0.351 nM, respectively.

B2: SIRPAB-12 (antibody, human IgG1, kappa)
light: B1 light
heavy: not shown
In the case of B2, the dissociation constant Kd (as a rule, the concentration at which binding is half-saturated) is 0.81 nM in assay [4]; 15.4 nM in assay [5]; 0.53 nM in assay [6]; 8.13 nM in assay [7]; 4.87 nM in assay [8]; 1.58 nM in assay [9]. For the same molecule, the Kd with human SIRPβ-Fc was determined as 3.35 nM; with human SIRPγ-Fc it was 1.49 nM. Besides, the koff (as a rule, the first-order rate constant of dissociation) was 0.00107 s⁻¹ in [4]; 0.0151 s⁻¹ in assay [5]; 0.000694 s⁻¹ in assay [6]; 0.0109 s⁻¹ in assay [7]; 0.00697 s⁻¹ in assay [8]; 0.00256 s⁻¹ in assay [9]. Also, the results for the koff in the assay with human SIRPβ-Fc and with human SIRPγ-Fc were 0.00445 s⁻¹ and 0.00218 s⁻¹, respectively. The kon (usually the second-order rate constant of association) in [4] stood at 1.31e+06 M⁻¹ s⁻¹; in assay [5] it was 980000 M⁻¹ s⁻¹; in assay [6], 1.31e+06 M⁻¹ s⁻¹; in assay [7], 1.35e+06 M⁻¹ s⁻¹; in assay [8], 1.43e+06 M⁻¹ s⁻¹; in assay [9], 1.63e+06 M⁻¹ s⁻¹. Besides, the on-rate (kon) with human SIRPβ-Fc turned out to be 1.33e+06 M⁻¹ s⁻¹; with human SIRPγ-Fc it was 1.46e+06 M⁻¹ s⁻¹. Also, the binding result in the assay with mouse SIRPα-Fc [10] and in the assay with mouse SIRPα on cells [12] was “no binding” each time. The “fold increase over background (100 nM)” value with human SIRPα on cells is 2350 fold; in [11], 2220 fold.

B3: SIRPAB-11 (antibody, human IgG1, kappa)
light: B1 light
heavy: not shown
notes: also called SIRPAB-11-IgG1; SIRPAB-11 IgG1 antibody
Consider B3, for which the equilibrium dissociation constant (Kd) amounted to 0.13 nM in assay [4]; 4.4 nM in [5]; 0.145 nM in assay [6]; 1.52 nM in assay [7]; 0.611 nM in assay [8]; 0.183 nM in assay [9]. The results for the Kd in the assay with human SIRPβ-Fc, with human SIRPγ-Fc and with cyno SIRPα-Fc were 0.32 nM, 0.13 nM and 4.9 nM, respectively. Moreover, the koff in [4] was 0.0002 s⁻¹; in [5], 0.00559 s⁻¹; in assay [6], 0.0002 s⁻¹; in [7], 0.00228 s⁻¹; in assay [8], 0.00106 s⁻¹; in [9] it was 0.000356 s⁻¹. The koff in the assay with human SIRPβ-Fc is 0.000473 s⁻¹; in the assay with human SIRPγ-Fc, 0.000205 s⁻¹; with cyno SIRPα-Fc, 0.00869 s⁻¹. Moreover, the kon in assay [4] was determined as 1.49e+06 M⁻¹ s⁻¹; in [5] it was 1.27e+06 M⁻¹ s⁻¹; in assay [6], 1.38e+06 M⁻¹ s⁻¹; in assay [7] it was 1.5e+06 M⁻¹ s⁻¹; in [8], 1.73e+06 M⁻¹ s⁻¹; in assay [9], 1.94e+06 M⁻¹ s⁻¹. Moreover, the kon with human SIRPβ-Fc amounted to 1.49e+06 M⁻¹ s⁻¹; in the assay with human SIRPγ-Fc it was 1.57e+06 M⁻¹ s⁻¹; with cyno SIRPα-Fc it was 1.77e+06 M⁻¹ s⁻¹. Also, the binding result with mouse SIRPα-Fc [10] and with mouse SIRPα on cells [12] was “no binding” in each case. The “fold increase over background (100 nM)” value worked out at 1890 fold in the assay with human SIRPα on cells and 1950 fold in [11].

B4: … ANTIBODY (SIRPα reference antibody with light chain SEQ ID NO:224 and heavy chain SEQ ID NO:225) (antibody, human IgG1, kappa, V domains shown)
VH: EVQLQQSGAELVKPGASVKLSCTASGFNIKDYYIHWVQQRTEQGLEWIGRIDPEDGETKYAPKFQDKATITADTSSNTAYLHLSSLTSEDTAVYYCARWGAYWGQGTLVTVSA
VL: QIVLTQSPAIMSASPGEKVTLTCSASSSVSSSYLYWYQQKPGSSPKLWIYSTSNLASGVPARFSGSGSGTSYSLTISSMEAEDAASYFCHQWSSYPRTFGAGTKLELKR
In the case of B4, the Kd in assay [1] was determined as 3.65 nM; in assay [2] it was 2.98 nM; in [3], 1.47 nM.

B5: SIRPAB-17 (antibody, human IgG1, kappa, V domains shown)
VH: QVQLQESGPGLVKPSQTLSLTCTVSGGSISSGGYYWSWIRQHPGKGLEWIGAIYYSGPIYYNPSLKSRVTISVDTSKNQFSLKLSSVTAADTAVYYCAREGYHSGMDVWGQGTTVTVSS
VL: DIQMTQSPSSLSASVGDRVTITCQASQDISNYLNWYQQKPGKAPKLLIYDASNLATGVPSRFSGSGSGTDFTFTISSLQPEDIATYYCQQFAYLPWTFGGGTKVEIKR
In the assay with mouse SIRPα-Fc [13], B5 returned an equilibrium dissociation constant (Kd) of 17.3 nM, a koff of 0.00373 s⁻¹ and a kon of 220000 M⁻¹ s⁻¹. Besides, in the assay with NOD/SCID mouse SIRPα-Fc, the dissociation constant (Kd) came out at 152 nM, the koff was 0.0228 s⁻¹ and the kon was 150000 M⁻¹ s⁻¹. The “fold increase over background (100 nM)” value with mouse SIRPα on cells [14] was determined as 449 fold.

B6: SIRPAB-21 (antibody, human IgG1, kappa, V domains shown)
VH: B5 VH with A98S, R99K
VL: B5 VL with Q27D, N31D, A55E
In the assay with mouse SIRPα-Fc [13], B6 registered a Kd of 1.46 nM, an off-rate constant (koff) of 0.000708 s⁻¹ and a kon of 490000 M⁻¹ s⁻¹. For the same molecule, in the assay with NOD/SCID mouse SIRPα-Fc, binding was characterised by a dissociation constant (Kd) of 5.43 nM, the dissociation rate constant (koff) amounted to 0.0019 s⁻¹ and the kon stood at 350000 M⁻¹ s⁻¹. The “fold increase over background (100 nM)” value with mouse SIRPα on cells [14] worked out at 2440 fold.
